Data reported in patent US20140087995A1 (published 2014).
Numbered stars: 1 amine (or outer) side, 2 acyl side, 3 side chain; on linkers, the order of the positions; unused ones are H or OH. Bridge positions count the residues as written; N and C are the ends. Side chains are listed from the residue outwards. Ends that are not written are not given here. * marks the point of attachment. C20 diacid = O=C(O)CCCCCCCCCCCCCCCCCCC(=O)*; γGlu = O=C(O)[C@H](CCC(=O)[*:2])N[*:1]; AEEA = NCCOCCOCC(=O)O

T1: human calcitonin receptor (human, UniProt P30988 25-474)
T1 construct: whole, on cells; Used as membranes prepared from the transfected cells; also called hCTR; hCT
T1 sequence (looked up): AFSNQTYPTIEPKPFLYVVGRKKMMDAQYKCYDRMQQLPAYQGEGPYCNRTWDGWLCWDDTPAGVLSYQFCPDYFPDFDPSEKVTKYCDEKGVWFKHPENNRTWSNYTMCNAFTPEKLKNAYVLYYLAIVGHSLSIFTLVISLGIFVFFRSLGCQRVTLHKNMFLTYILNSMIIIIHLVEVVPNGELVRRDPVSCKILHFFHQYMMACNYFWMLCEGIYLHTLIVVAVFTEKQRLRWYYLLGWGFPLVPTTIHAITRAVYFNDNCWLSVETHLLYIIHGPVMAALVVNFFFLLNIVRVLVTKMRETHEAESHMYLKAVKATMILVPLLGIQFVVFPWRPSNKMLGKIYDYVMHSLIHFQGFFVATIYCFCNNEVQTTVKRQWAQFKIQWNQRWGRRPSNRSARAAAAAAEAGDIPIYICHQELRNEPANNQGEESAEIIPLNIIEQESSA

T2: rat calcitonin receptor (rat, UniProt P32214 25-516)
T2 construct: whole, on cells; Used as membranes prepared from the transfected cells; also called rCTR; rCT
T2 sequence (looked up): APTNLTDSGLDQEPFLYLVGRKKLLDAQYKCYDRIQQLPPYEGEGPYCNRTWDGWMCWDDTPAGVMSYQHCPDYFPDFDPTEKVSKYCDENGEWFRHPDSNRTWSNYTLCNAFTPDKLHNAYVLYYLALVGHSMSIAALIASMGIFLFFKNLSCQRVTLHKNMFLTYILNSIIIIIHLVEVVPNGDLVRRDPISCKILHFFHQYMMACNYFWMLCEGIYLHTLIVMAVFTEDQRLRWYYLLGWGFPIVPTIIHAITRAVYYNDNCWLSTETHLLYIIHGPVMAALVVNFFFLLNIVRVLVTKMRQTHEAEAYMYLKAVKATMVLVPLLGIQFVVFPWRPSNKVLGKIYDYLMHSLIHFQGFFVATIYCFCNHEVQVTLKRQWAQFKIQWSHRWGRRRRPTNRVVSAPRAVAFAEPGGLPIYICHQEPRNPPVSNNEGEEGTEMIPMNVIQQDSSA


How the values were obtained:
[1] = molecular target: T1, human calcitonin receptor; test: ratio of binding IC50 at human calcitonin receptor to IC50 at human amylin receptor (reference)
Method in brief: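 Membranes (35 ng/μL final) + SPA beads, 50 mM Hepes pH 7.4 buffer with 1 mM CaCl2, 5 mM MgCl₂, 0.1% OA, 0.02% Tween20; 120 min, 25° C, shaking; centrifuged, counted; IC₅₀ by one-site binding competition.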

[2] = molecular target: T2, rat calcitonin receptor; test: SPA competition with 125I-calcitonin, membranes with rat calcitonin receptor (Assay VIII)
[3] = molecular target: T2, rat calcitonin receptor; test: ratio of binding IC50 at rat calcitonin receptor to IC50 at rat amylin receptor (reference)

Ratio hCT/hAmylin binding [1]	IC50 [2] [nM]	Ratio rCT/rAmylin binding [3]	Binder
101	109	22.3	K([AEEA-γGlu-C20 diacid])CNTATCATQRLAKFLRHSSPNFGAIPSSTPVGSNTY-NH2 (disulfide 2-7; N-terminus assumed; SMILES CC[C@H](C)[C@H](NC(=O)[C@H](C)NC(=O)CNC(=O)[C@H](Cc1ccccc1)NC(=O)[C@H](CC(N)=O)NC(=O)[C@@H]1CCCN1C(=O)[C@H](CO)NC(=O)[C@H](CO)NC(=O)[C@H](Cc1c[nH]cn1)NC(=O)[C@H](CCCNC(=N)N)NC(=O)[C@H](CC(C)C)NC(=O)[C@H](Cc1ccccc1)NC(=O)[C@H](CCCCN)NC(=O)[C@H](C)NC(=O)[C@H](CC(C)C)NC(=O)[C@H](CCCNC(=N)N)NC(=O)[C@H](CCC(N)=O)NC(=O)[C@@H](NC(=O)[C@H](C)NC(=O)[C@@H]1CSSC[C@H](NC(=O)[C@@H](N)CCCCNC(=O)COCCOCCNC(=O)CC[C@H](NC(=O)CCCCCCCCCCCCCCCCCCC(=O)O)C(=O)O)C(=O)N[C@@H](CC(N)=O)C(=O)N[C@@H]([C@@H](C)O)C(=O)N[C@@H](C)C(=O)N[C@@H]([C@@H](C)O)C(=O)N1)[C@@H](C)O)C(=O)N1CCC[C@H]1C(=O)N[C@@H](CO)C(=O)N[C@@H](CO)C(=O)N[C@H](C(=O)N1CCC[C@H]1C(=O)N[C@H](C(=O)NCC(=O)N[C@@H](CO)C(=O)N[C@@H](CC(N)=O)C(=O)N[C@H](C(=O)N[C@@H](Cc1ccc(O)cc1)C(N)=O)[C@@H](C)O)C(C)C)[C@@H](C)O, Analogue of human amylin; disulfide and C-terminal amide as told for h-amylin; Acylation site is 1K, not Lys14; also called compound 74)
157	124	35.6	K([γGlu-C20 diacid])CNTATCATQRLARFLRHSSPNFGAIPSSTPVGSNTY-NH2 (disulfide 2-7; N-terminus assumed; SMILES CC[C@H](C)[C@H](NC(=O)[C@H](C)NC(=O)CNC(=O)[C@H](Cc1ccccc1)NC(=O)[C@H](CC(N)=O)NC(=O)[C@@H]1CCCN1C(=O)[C@H](CO)NC(=O)[C@H](CO)NC(=O)[C@H](Cc1c[nH]cn1)NC(=O)[C@H](CCCNC(=N)N)NC(=O)[C@H](CC(C)C)NC(=O)[C@H](Cc1ccccc1)NC(=O)[C@H](CCCNC(=N)N)NC(=O)[C@H](C)NC(=O)[C@H](CC(C)C)NC(=O)[C@H](CCCNC(=N)N)NC(=O)[C@H](CCC(N)=O)NC(=O)[C@@H](NC(=O)[C@H](C)NC(=O)[C@@H]1CSSC[C@H](NC(=O)[C@@H](N)CCCCNC(=O)CC[C@H](NC(=O)CCCCCCCCCCCCCCCCCCC(=O)O)C(=O)O)C(=O)N[C@@H](CC(N)=O)C(=O)N[C@@H]([C@@H](C)O)C(=O)N[C@@H](C)C(=O)N[C@@H]([C@@H](C)O)C(=O)N1)[C@@H](C)O)C(=O)N1CCC[C@H]1C(=O)N[C@@H](CO)C(=O)N[C@@H](CO)C(=O)N[C@H](C(=O)N1CCC[C@H]1C(=O)N[C@H](C(=O)NCC(=O)N[C@@H](CO)C(=O)N[C@@H](CC(N)=O)C(=O)N[C@H](C(=O)N[C@@H](Cc1ccc(O)cc1)C(N)=O)[C@@H](C)O)C(C)C)[C@@H](C)O, Analogue of human amylin; disulfide and C-terminal amide as told for h-amylin; also called compound 63)
91.4	442	110	K([AEEA-γGlu-C20 diacid])CNTATCATQRLATFLRHSSPNFGAIPSSTPVGSNTY-NH2 (disulfide 2-7; N-terminus assumed; SMILES CC[C@H](C)[C@H](NC(=O)[C@H](C)NC(=O)CNC(=O)[C@H](Cc1ccccc1)NC(=O)[C@H](CC(N)=O)NC(=O)[C@@H]1CCCN1C(=O)[C@H](CO)NC(=O)[C@H](CO)NC(=O)[C@H](Cc1c[nH]cn1)NC(=O)[C@H](CCCNC(=N)N)NC(=O)[C@H](CC(C)C)NC(=O)[C@H](Cc1ccccc1)NC(=O)[C@@H](NC(=O)[C@H](C)NC(=O)[C@H](CC(C)C)NC(=O)[C@H](CCCNC(=N)N)NC(=O)[C@H](CCC(N)=O)NC(=O)[C@@H](NC(=O)[C@H](C)NC(=O)[C@@H]1CSSC[C@H](NC(=O)[C@@H](N)CCCCNC(=O)COCCOCCNC(=O)CC[C@H](NC(=O)CCCCCCCCCCCCCCCCCCC(=O)O)C(=O)O)C(=O)N[C@@H](CC(N)=O)C(=O)N[C@@H]([C@@H](C)O)C(=O)N[C@@H](C)C(=O)N[C@@H]([C@@H](C)O)C(=O)N1)[C@@H](C)O)[C@@H](C)O)C(=O)N1CCC[C@H]1C(=O)N[C@@H](CO)C(=O)N[C@@H](CO)C(=O)N[C@H](C(=O)N1CCC[C@H]1C(=O)N[C@H](C(=O)NCC(=O)N[C@@H](CO)C(=O)N[C@@H](CC(N)=O)C(=O)N[C@H](C(=O)N[C@@H](Cc1ccc(O)cc1)C(N)=O)[C@@H](C)O)C(C)C)[C@@H](C)O, Analogue of human amylin; disulfide and C-terminal amide as told for h-amylin; also called compound 75)
101	131	83.2	K([γGlu-C20 diacid])CNTATCATQRLAAFLRHSSPNFGAIPSSTNVGHNTY-NH2 (disulfide 2-7; N-terminus assumed; SMILES CC[C@H](C)[C@H](NC(=O)[C@H](C)NC(=O)CNC(=O)[C@H](Cc1ccccc1)NC(=O)[C@H](CC(N)=O)NC(=O)[C@@H]1CCCN1C(=O)[C@H](CO)NC(=O)[C@H](CO)NC(=O)[C@H](Cc1c[nH]cn1)NC(=O)[C@H](CCCNC(=N)N)NC(=O)[C@H](CC(C)C)NC(=O)[C@H](Cc1ccccc1)NC(=O)[C@H](C)NC(=O)[C@H](C)NC(=O)[C@H](CC(C)C)NC(=O)[C@H](CCCNC(=N)N)NC(=O)[C@H](CCC(N)=O)NC(=O)[C@@H](NC(=O)[C@H](C)NC(=O)[C@@H]1CSSC[C@H](NC(=O)[C@@H](N)CCCCNC(=O)CC[C@H](NC(=O)CCCCCCCCCCCCCCCCCCC(=O)O)C(=O)O)C(=O)N[C@@H](CC(N)=O)C(=O)N[C@@H]([C@@H](C)O)C(=O)N[C@@H](C)C(=O)N[C@@H]([C@@H](C)O)C(=O)N1)[C@@H](C)O)C(=O)N1CCC[C@H]1C(=O)N[C@@H](CO)C(=O)N[C@@H](CO)C(=O)N[C@H](C(=O)N[C@@H](CC(N)=O)C(=O)N[C@H](C(=O)NCC(=O)N[C@@H](Cc1c[nH]cn1)C(=O)N[C@@H](CC(N)=O)C(=O)N[C@H](C(=O)N[C@@H](Cc1ccc(O)cc1)C(N)=O)[C@@H](C)O)C(C)C)[C@@H](C)O, Analogue of human amylin; disulfide and C-terminal amide as told for h-amylin; also called compound 93)
51.7	50.3	178	K([AEEA-γGlu-C20 diacid])CNTATCATQRLASFLRHSSPNFGAIPSSTPVGSNTY-NH2 (disulfide 2-7; N-terminus assumed; SMILES CC[C@H](C)[C@H](NC(=O)[C@H](C)NC(=O)CNC(=O)[C@H](Cc1ccccc1)NC(=O)[C@H](CC(N)=O)NC(=O)[C@@H]1CCCN1C(=O)[C@H](CO)NC(=O)[C@H](CO)NC(=O)[C@H](Cc1c[nH]cn1)NC(=O)[C@H](CCCNC(=N)N)NC(=O)[C@H](CC(C)C)NC(=O)[C@H](Cc1ccccc1)NC(=O)[C@H](CO)NC(=O)[C@H](C)NC(=O)[C@H](CC(C)C)NC(=O)[C@H](CCCNC(=N)N)NC(=O)[C@H](CCC(N)=O)NC(=O)[C@@H](NC(=O)[C@H](C)NC(=O)[C@@H]1CSSC[C@H](NC(=O)[C@@H](N)CCCCNC(=O)COCCOCCNC(=O)CC[C@H](NC(=O)CCCCCCCCCCCCCCCCCCC(=O)O)C(=O)O)C(=O)N[C@@H](CC(N)=O)C(=O)N[C@@H]([C@@H](C)O)C(=O)N[C@@H](C)C(=O)N[C@@H]([C@@H](C)O)C(=O)N1)[C@@H](C)O)C(=O)N1CCC[C@H]1C(=O)N[C@@H](CO)C(=O)N[C@@H](CO)C(=O)N[C@H](C(=O)N1CCC[C@H]1C(=O)N[C@H](C(=O)NCC(=O)N[C@@H](CO)C(=O)N[C@@H](CC(N)=O)C(=O)N[C@H](C(=O)N[C@@H](Cc1ccc(O)cc1)C(N)=O)[C@@H](C)O)C(C)C)[C@@H](C)O, Analogue of human amylin; disulfide and C-terminal amide as told for h-amylin; also called compound 73)
